For one assay, the target named is T1, cynoGDF15-mFC (monkey (cyno); mouse, UniProt G7PWZ3 197-308).
T1 construct: also called monkey GDF15 (cynoGDF15)
T1 sequence (looked up): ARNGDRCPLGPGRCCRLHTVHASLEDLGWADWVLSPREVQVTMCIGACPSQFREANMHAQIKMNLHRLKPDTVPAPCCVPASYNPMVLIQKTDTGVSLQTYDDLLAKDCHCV
The assay is described as follows: ELISA, cynoGDF15-mFC coated. The procedure:
The experiment was performed as detailed in Example 2, except that the coating protein was cynoGDF15-mFC (GDF15: Genbank accession number EHH29815.1; mFC: Genbank accession number AAH31470.1), and the antibodies to be tested (the humanized antibodies), negative control antibody (hIgG1), and positive control antibodies Ponsegromab and AV380-hIgG1 were added to each well of the coated plate.

Assay [1] addresses T2, GDF15-HIS (ACROBiosystems, CAT #: GD5-H5149) (human, UniProt Q99988 197-308).
T2 sequence (looked up): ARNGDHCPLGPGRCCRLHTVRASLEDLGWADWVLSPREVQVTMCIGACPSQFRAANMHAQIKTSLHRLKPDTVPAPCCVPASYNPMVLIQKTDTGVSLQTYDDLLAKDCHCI
The assay is described as follows: cell-based or functional assay.

Assay [2] concerns the target T2, GDF15-HIS (ACROBiosystems, CAT #: …). In words: ELISA on human GDF15, antibody after 2 weeks at 37 °C in plasma. The protocol: […] of the antibodies to be tested (final concentration 1 mg/ml) were added to 200 μl of plasma and PBS, respectively, tightly sealed and placed at 37° C. for 2 weeks. The change of protein binding activity was detected by ELISA.
The target of assay [3] is T3, GDF15-mFC protein (human; mouse, UniProt Q99988 197-308).
T3 construct: extracellular domain;domain: IgG2a-FC; also called GDF15-mFc fusion protein
T3 sequence (looked up): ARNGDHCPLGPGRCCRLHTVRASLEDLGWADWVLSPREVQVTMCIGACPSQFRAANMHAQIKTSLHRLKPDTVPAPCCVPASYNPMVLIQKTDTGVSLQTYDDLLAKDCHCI
In words: blocking ELISA as in Example 4, GFRAL-hIgG1 Fc coated (competitor), GDF15-mFC mixed with antibody. The procedure: A fusion protein comprising the extracellular region of GFRAL protein (Genbank accession number NM_207410.2) and human IgG1-FC (Genbank accession number CAC20454.1) was diluted to […] with coating solution, followed by adding to ELISA plate at 50 μl/well and incubating at 4° C. overnight. The solution in the wells was discarded and the plate was washed 3 times with washing solution, each time for 3-5 minutes, and dried via tapping. 200 μl of blocking solution was added to each well followed by incubating at 4° C. overnight. The plate was washed 3 times with washing solution, and the coated plate may be stored at −20° C. or 4° C. for future use.
The antibodies to be tested, positive control antibody AV380-mIgG1 and blank control (PBS) were added to the wells. […] At the same time, GDF15-mFC protein (GDF15: Genbank accession number NM_004864.3; mFC: Genbank accession number AAH31470.1) was added at 20 ng/well and mixed with the antibodies to be tested. The wells were incubated at 37° C. for 1 hour, washed, and dried via tapping. Then the enzyme-labeled secondary antibody, horseradish peroxidase-labeled goat anti-mouse IgG (SIGMA, catalog number A9044-2 ml) was added to each well, at a dilution of 1:10000, 50-100 μl/well. The wells were incubated at 37° C. for 2 hours, washed, and dried via tapping. 100 μl of freshly prepared developing solution TMB was added to each well and incubated at 37° C. for 30 minutes. 2 mol/L H₂SO₄ was added to terminate the reaction, and the OD value was obtained on an enzyme-linked immunosorbent reader.
The experiment was performed as detailed in Example 4, except that the antibodies to be tested (the humanized antibodies), negative control antibody (hIgG1), and positive control antibodies Ponsegromab and AV380-hIgG1 were added to each well of the coated plate.
On the technique in general: An ELISA detects its analyte on a solid surface through an enzyme-linked reagent.

Assay [4] deals with T3, GDF15-mFC protein. In words: competitive ELISA, GFRAL-HIS coated (competitor), GDF15-mFc 0.3 µg/ml pre-incubated with antibody. The procedure:
GFRAL-HIS protein (ACROBiosystems, GFA-H52H3) was dissolved in PBS at a concentration of […] and was used to coat ELISA 96-well plate one day before blocking the plate with 2% BSA in PBS. 53E5 (hz), and control antibodies Ponsegromab and AV380-hIgG1 were 3.16-fold diluted for 10 gradients with a starting concentration of 20 μg/ml. At the same time, GDF15-mFc protein was added at a final concentration of 0.3 μg/ml. After incubation at room temperature for 1 hour, the mixtures were added to 96-well plate coated with GFRAL-HIS. After incubated at room temperature for 1 hour, the plate was washed and then HRP-anti-mouse IgG was added to the plate. After incubation at room temperature for 1 hour, the HRP enzyme activity (OD450) was detected. The HRP enzyme activity represents the relative amount of GDF15-mFc protein bound to GFRAL. The OD450 values and antibody concentrations were plotted. The dose-effect curve was fitted using the log (agonist) vs. response-variable slope (four-parameter) Logistic model to calculate IC50.

The record followed here is US20250092124A1 (YUNNAN BAIYAO GROUP, published 2025).

B1: 53E5(hz) (antibody, human IgG1, kappa, V domains shown)
VH: QVQLQESGPGLVKPSETLSLTCTFSGFSLSTSGMGVGWIRQPPGKGLEWLAHILWDDVKRYNPALKSRLTISKDSSKSQISLKLSSVTAADTAVYYCVQMAWDWFAYWGQGTTVTVSS
VL: DIQMTQSPSSLSASVGDRVTITCKASQNVDTNVAWYQQKPGQSPKALIYSASYRSSGVPSRFSGSGSGTDFTLTISSLQPEDFATYYCQQYHSYPTFGQGTRLEIKR
notes: also called S3E5 (hz); humanized antibody 53E5
On to B1, for which the EC50 in the assay with cynoGDF15-mFC came out at 0.0816 µg/mL; in assay [2], 0.0372 µg/mL. Further, the OD450.Max with cynoGDF15-mFC was 1.03 OD450; with GDF15-mFC protein [3], 1.05 OD450. Also, in assay [1], the “EC50 (read off the curve) of GDF15-His for luciferase induction with 0.1 µg/ml antibody present” value is roughly 0.02 µg/mL. Further, the 50% inhibitory concentration (IC50) with GDF15-mFC protein [3] and with GDF15-mFC protein [4] was 0.253 µg/mL in each case.

As a reminder, the EC50 is the concentration that produces a half-maximal response. By IC50 is commonly meant the concentration that gives 50% inhibition.
